Reference: patent US8357523B2, “Beta-glucosidase variant enzymes and related polynucleotides” (Codexis, Inc., priority 2009, dated 2013)
Residue numbers refer to the chain shown, from its start.

B1: 155 (protein)
chain: STAIAQEGAAPAAILHPEKWPRPATQRLIDPAVEKRVDALLKQLSVEEKVGQVIQGDIGTITPEDLRKYPLGSILAGGDSGPNGDDRAPPKEWLDLADAFYRVSLEKRPGHTPIPVLFGIDAVHGHGNIGSATIFPHNIALGATRDPELLRRIGEVTAVEMAATGIDWTFAPALSVVRDDRWGRTYEGFSEDPEIVASYSAAIVEGVQGKFGSKDFMAPGRIVACAKHFLADGGTDQGRDQGDARISEDELIRIHNAGYPPAIDAGVLTVMASFSSWQGIKHHGHKQLLTDVLKGQMGFNGFIVGDWNAHDQVPGCTKFNCPTSLIAGLDMYMAADSWKQLYENTLAQVKDGTIPMARLDDAVRRILRVKVLAGLFEKPAPKDRPGLPGLETLGSPEHRAVGREAVRKSLVLLKNDKGTLPLSPKARVLVAGDGADNIGKQSGGWTISWQGTGNRNDEFPGATSILGGIRDAVADAGGSVEFDVAGQYKTKPDVAIVVFGEEPYAEFQGDVETLEYQPDQKQDLALLKKLKDQGIPVVAVFLSGRPMWVNPELNASDAFVAAWLPGTEGGGVADVLFTDKAGKVQHDFAGKLSYSWPRTAAQTTVNRGDADYNPLFAYGYGLTYKDKSKVGTLPEESGVPAEARQNAGIYFRAGALRLPGRFL
B2: 76 (protein)
chain: B1 chain with D79N, N128K, S198A, C225S
B3: 159 (protein)
chain: B1 chain with A162T
B4: 170 (protein)
chain: B1 chain with D79N, N128K, D146S, V159E, S198A, A201P, F211Y, A573V
B5: 163 (protein)
chain: B1 chain with N128K, D146S, A162T, A173C, F211Y, C225S
B6: 164 (protein)
chain: B1 chain with N128K, D146S, S198A
B7: 168 (protein)
chain: B1 chain with D79N, N128K, V159Q, S198A, A201P, F211Y, I222S
B8: 80 (protein)
chain: B1 chain with D79N, N128K, A162T, S198A
B9: 172 (protein)
chain: B1 chain with D79N, V159Q, S198A, F211Y, I222S, G534E
B10: 162 (protein)
chain: B1 chain with D79N, A173C, S198A, A201P, F211Y, P219V, C225S
B11: 156 (protein)
chain: B1 chain with N128K, A143M, A162T, I222S, Q237R
B12: 178 (protein)
chain: B1 chain with D79N, F211Y, I222A, A373T
B13: 183 (protein)
chain: B1 chain with D146S, A162T, F211Y, I222A, D311G, N320K, R358H, F662L
B14: 169 (protein)
chain: B1 chain with V159Q, A162T, S198A, A201P, F211Y
B15: 78 (protein)
chain: B1 chain with D79N, S198A
B16: 81 (protein)
chain: B1 chain with E18R, P23L, E34K, E47K, P70S, D79N, S198A
B17: 179 (protein)
chain: B1 chain with N128K, A173C, F211Y, C225S
B18: 175 (protein)
chain: B1 chain with D146S, F211Y
B19: 77 (protein)
chain: B1 chain with D79N, S198A, A201P
B20: 167 (protein)
chain: B1 chain with N128K, S198A, C225S
B21: 158 (protein)
chain: B1 chain with I166T, F211Y
B22: 171 (protein)
chain: B1 chain with V159E, F211Y, P219V, C225S
B23: 173 (protein)
chain: B1 chain with I14M, N128K, A162T, S198A, A201P, F211Y, Q487R
B24: 166 (protein)
chain: B1 chain with G154V, S198A, F211Y
B25: 79 (protein)
chain: B1 chain with D79N, N128K, S198A
B26: 174 (protein)
chain: B1 chain with E34D, N128K, A143M, V159E, S198A, A201P, F211Y, C225S
B27: 165 (protein)
chain: B1 chain with D79N, A143M, S198A, A201P
B28: 160 (protein)
chain: B1 chain with D79N, D146S, V159Q, S198A, A201P, F211Y, I222A
B29: 181 (protein)
chain: B1 chain with D79N, N128K, A143M, V159E, S198A, F211Y
B30: 180 (protein)
chain: B1 chain with N128K, D146S, S198A, A655T
B31: 182 (protein)
chain: B1 chain with I114T, N128K, V159Q, A173C, F211Y, P219V, C225S

Assay: High throughput cellobiose assay: fold improvement in cellobiase activity of CelA variants over a control enzyme (Tables 2A-2D, 3, 5, 6, 7)
Format: biochemical
Conditions: 3.3 g/l cellobiose, 55° C. and pH 6.0

| Molecule | Fold improvement over Control Variant No. 5 from Table 2A |
| --- | --- |
| B1 | +++ (+++ = 6 to 13 fold improvement over control Variant No. 2) |
| B2 | ++ (++ = 1.1 to 6 fold improvement over control Variant No. 2) |
| B3 | +++ (+++ = 6 to 13 fold improvement over control Variant No. 2) |
| B4 | ++ (++ = 1.1 to 6 fold improvement over control Variant No. 2) |
| B5 | +++ (+++ = 6 to 13 fold improvement over control Variant No. 2) |
| B6 | +++ (+++ = 6 to 13 fold improvement over control Variant No. 2) |
| B7 | +++ (+++ = 6 to 13 fold improvement over control Variant No. 2) |
| B8 | +++ (+++ = 6 to 13 fold improvement over control Variant No. 2) |
| B9 | +++ (+++ = 6 to 13 fold improvement over control Variant No. 2) |
| B10 | +++ (+++ = 6 to 13 fold improvement over control Variant No. 2) |
| B11 | +++ (+++ = 6 to 13 fold improvement over control Variant No. 2) |
| B12 | +++ (+++ = 6 to 13 fold improvement over control Variant No. 2) |
| B13 | ++ (++ = 1.1 to 6 fold improvement over control Variant No. 2) |
| B14 | +++ (+++ = 6 to 13 fold improvement over control Variant No. 2) |
| B15 | ++ (++ = 1.1 to 6 fold improvement over control Variant No. 2) |
| B16 | ++ (++ = 1.1 to 6 fold improvement over control Variant No. 2) |

| Molecule | Fold improvement over Control Variant No. 5 from Table 2A |
| --- | --- |
| B17 | +++ (+++ = 6 to 13 fold improvement over control Variant No. 2) |
| B18 | +++ (+++ = 6 to 13 fold improvement over control Variant No. 2) |
| B19 | ++ (++ = 1.1 to 6 fold improvement over control Variant No. 2) |
| B20 | ++ (++ = 1.1 to 6 fold improvement over control Variant No. 2) |
| B21 | ++ (++ = 1.1 to 6 fold improvement over control Variant No. 2) |
| B22 | +++ (+++ = 6 to 13 fold improvement over control Variant No. 2) |
| B23 | +++ (+++ = 6 to 13 fold improvement over control Variant No. 2) |
| B24 | +++ (+++ = 6 to 13 fold improvement over control Variant No. 2) |
| B25 | ++ (++ = 1.1 to 6 fold improvement over control Variant No. 2) |
| B26 | ++ (++ = 1.1 to 6 fold improvement over control Variant No. 2) |
| B27 | +++ (+++ = 6 to 13 fold improvement over control Variant No. 2) |
| B28 | +++ (+++ = 6 to 13 fold improvement over control Variant No. 2) |
| B29 | +++ (+++ = 6 to 13 fold improvement over control Variant No. 2) |
| B30 | +++ (+++ = 6 to 13 fold improvement over control Variant No. 2) |
| B31 | ++ (++ = 1.1 to 6 fold improvement over control Variant No. 2) |
